According to patent US12365738B2, “Method of treating an interleukin-11-associated or -mediated fibrotic disease or condition by administering an anti-interleukin-11 receptor subunit alpha (IL-11RA) antibody” (Lassen Therapeutics, Inc., priority 2021, dated 2025):

T1: hIL-11Rα (Homo sapiens, UniProt Q14626)
T1 sequence (Q14626 23-422): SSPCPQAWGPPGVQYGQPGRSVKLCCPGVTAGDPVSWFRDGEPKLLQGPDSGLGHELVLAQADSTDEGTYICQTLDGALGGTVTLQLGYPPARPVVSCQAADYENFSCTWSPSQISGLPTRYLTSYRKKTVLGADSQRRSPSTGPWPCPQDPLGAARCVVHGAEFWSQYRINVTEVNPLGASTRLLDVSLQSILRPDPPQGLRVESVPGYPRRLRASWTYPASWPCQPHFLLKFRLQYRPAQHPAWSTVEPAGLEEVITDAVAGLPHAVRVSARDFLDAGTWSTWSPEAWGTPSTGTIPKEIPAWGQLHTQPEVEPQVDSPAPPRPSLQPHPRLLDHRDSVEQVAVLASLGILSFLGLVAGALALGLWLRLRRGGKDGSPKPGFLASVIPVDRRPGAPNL

T2: hIL-11R (Homo sapiens, UniProt Q14626)
T2 sequence (Q14626 23-422): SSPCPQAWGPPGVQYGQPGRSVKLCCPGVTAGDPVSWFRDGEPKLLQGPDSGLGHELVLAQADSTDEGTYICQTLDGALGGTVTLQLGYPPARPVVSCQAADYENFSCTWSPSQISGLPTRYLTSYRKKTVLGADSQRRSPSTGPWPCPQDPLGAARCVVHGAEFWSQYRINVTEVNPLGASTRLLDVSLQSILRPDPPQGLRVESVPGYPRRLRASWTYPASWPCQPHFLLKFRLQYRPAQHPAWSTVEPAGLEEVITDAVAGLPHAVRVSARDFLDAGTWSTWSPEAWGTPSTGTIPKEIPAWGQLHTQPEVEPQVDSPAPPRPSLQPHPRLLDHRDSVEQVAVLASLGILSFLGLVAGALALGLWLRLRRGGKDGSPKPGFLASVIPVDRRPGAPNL


Tests used:
[1] = test system: type VI collagen formation (PRO-C6) in fibrotic human PCLS; test: Fibrotic human precision-cut lung slice (PCLS) model, PRO-C6 ECM remodeling biomarker; assay type: cell-based; conditions: for median levels of PRO-C6 compared to the no treatment (media) control: pooled data, all donors and regions, mAb5 0.3, 3.0, 30 μg/mL, nintedanib 1 μM, isotype control 30 μg/mL
Protocol: Tissue slices were prepared from the subpleural and central region of the fibrotic lung from two human end-stage donors with pulmonary fibrosis (IPF and secondary fibrosis) (see, for example, Hess et al., Toxicol In Vitro. 32:347-61, 2016). For both donors, lung tissue samples from two different regional areas (subpleural and central) were used to generate tissue cores used for PCLS. Adjacent cores were used to achieve serial PCLS for the analysis of one treatment as compared to medium treated PCLS from the same cores. This enables the comparison of densely packed fibrotic areas with fibrotic foci with less affected areas. To ensure the fibrotic status, clinical/demographic information for each patient is provided.
Each treatment was tested with three replicates for each lung region and for each donor.
Preparation and incubation of precision-cut lung slices. Lung lobes were canuled and filled with 37° C. warm 2% low-melting agarose/medium solution. Filled lobes were cooled on ice to polymerise agarose. Tissue cores with a diameter of 8 mm were prepared and cut into approximately 300 μm thick slices using a microtome (Krumdieck tissue slicer, Alabama Research and Development, Muniford, AL, USA or Vibratome OTS-5000, Science Services GmbH, Munich) in Earle's Balanced Salts Solution (EBSS). Tissue slices were incubated in Dulbecco's modified Eagle's medium/nutrient mixture F-12 Ham (DMEM) with L-glutamine and 15 mM HEPES without phenol red. Tissue slices were transferred into petri dishes and washed with DMEM for 2 hours. Medium was changed four times every 30 minutes in order to remove cell debris.
Two PCLS per well were left over night in 500 μL DMEM in 24-well plates for a final washing step. Next day, PCLS were treated with experimental treatments or controls (see Table E5) in 250 μl DMEM/F-12 culture medium for 48 hours under normal cell culture conditions (37° C., 5% CO2). Medium contained 100 units/mL penicillin and 100 μg/mL streptomycin and was not supplemented with fetal calf serum. […]
Extracellular matrix remodeling evaluation. Biomarkers that reflect ECM remodeling were assessed in supernatant by Nordic Bioscience using the following competitive ELISA: PRO-C6 (C-terminal of type VI collagen C5 domain released as type VI collagen is incorporated into the matrix; measured on mesoscale platform [hsPRO-C6]): Reflects type VI collagen formation. […]
Statistics. […] Pooled data are presented as percentage of the “no treatment” control, calculated for individual regions and donors. Statistical significant differences were evaluated on pooled data by Kruskal-Wallis with Dunn's multiple comparisons test, comparing to the “no treatment” control. […]

hIL-11Rα = biological target: T1, hIL-11Rα; test: Kinetic binding analysis by biolayer interferometry (protein G biosensors, Octet RED96e)
Protocol: Association was carried out in the presence of a 2-fold dilution series of hIL-11Rα and was allowed to proceed for 120 seconds; dissociation was measured for 300 to 1200 seconds.

[2] = test system: IL-11 signaling (STAT3 Reporter (Luciferase)-HEK293 cell line); test: Cell-based STAT3 reporter (luciferase) HEK293 assay for inhibiting IL-11 signaling; set-up: species or system human
Protocol: Further testing of the lead mAbs was carried out using a cell-based reporter assay. IL-11 is reported to signal through the STAT3 and ERK pathways. Therefore, a STAT3 reporter cell line in which firefly luciferase gene expression is driven by STAT3 response elements located upstream of a minimal TATA promoter was selected to analyze mAb functional activity. In these cells, IL-11 can activate the endogenous STAT3 allowing it to bind to the STAT3 response elements, inducing transcription of the luciferase reporter gene and resulting in readily detectable luciferase expression. Antibodies to IL-11R which block IL-11 signaling should inhibit expression of IL-11 driven luciferase in these cells.
The STAT3 Reporter (Luciferase)—HEK293 cell line (BPS Bioscience, catalog #79800-P) was grown, passaged, and assayed as per manufacturer's protocols. Cells were added at 25,000 cells per well in a 96-well microtiter dish and incubated at 37° C. for 30-45 min. in 5% CO2 humidified air. Anti-IL-11R mAbs were added as a 3-fold dilution series in duplicate columns or rows, and plates were returned to the incubator for an additional 1 h at 37° C. after which 40 ng/mL IL-11 was added to each well to initiate the signal transduction cascade and luciferase production. Plates were incubated for 18-24 hours at 37° C. and luciferase was detected using a One-Step Luciferase Assay System (BPS Bioscience, cat. no. 60690-1) as per manufacturer's instructions.

hIL-11R = biological target: T2, hIL-11R; test: Alternate biolayer interferometry assay (AHC biosensors) ranking mAbs 16-32 against mAb5; assay type: binding; conditions: AHC biosensors
Text: A further series of antibodies were designed in which the residue at Kabat position 31 of the heavy chain was varied (mAbs 16-32). In this case an alternate biolayer interferometry assay was used to initially rank the antibodies compared to mAb5, the closest relative in sequence to mAbs 16-32. MAbs were loaded onto anti-human constant domain (AHC) biosensors (FortéBio) in 10×kinetics buffer consisting of PBS, 0.1% BSA, 0.02% polysorbate 20 (TWEEN™) for 120 s to achieve a spectral shift value of 0.8 to 1.2 nm. Association was carried out in the presence of 2-fold dilution series of hIL-11R and was allowed to proceed for 120 s. Dilution series started 10 nM. The dissociation in 10×kinetics buffer for 1200 s. Binding kinetic measurements were taken on an Octet RED96e instrument.

Row | Molecule | median levels of PRO-C6 compared to the no treatment (media) control ([1]; 48 hours) | ka (hIL-11Rα) | kd (hIL-11Rα) | potency at inhibiting IL-11 signaling relative to TS7 / 8E2 (in words) [2] | ka (hIL-11R) | kd (hIL-11R) | dose relation of PRO-C6 reduction ([1]; 0.3, 3.0, 30 μg/mL, 48 hours) | effects on ECM remodeling relative to nintedanib ([1]; in several cases)
1 | COC(=O)c1ccc2c(c1)NC(=O)/C2=C(\Nc1ccc(N(C)C(=O)CN2CCN(C)CC2)cc1)c1ccccc1 [nintedanib, Nintedanib, reference compound] | decreased |  |  |  |  |  |  | 
2 | mAb5: anti-IL-11Rα antibody, human IgG4 (S228P), kappa; VH SEQ ID NO: 201, VL SEQ ID NO: 202 (antibody, V domains shown, IgG4 S228P kappa constant regions; mAb5 VH Chain; mAb5 VL Chain) VH: EVQLLESGGGLVQPGGSLRLSCAASGFTFSWYSMTWVRQAPGKGLEWVSSIVPYGDLTQYADSVKGRFTISRDNSKNTLYLQMNSLRAEDTAVYYCAKGPGWGSFDLWGRGTLVTVSS VL: DIQMTQSPSSLSASVGDRVTITCQASQDINNYLNWYQQKPGKAPKLLIYDASNLQTGVPSRFSGSGSGTDFTFTISSLQPEDIATYYCQQHESQSPTFGPGTKVDIK | decreased | 63700 M⁻¹ s⁻¹ | <1e-07 s⁻¹ | more potent at inhibiting IL-11 signaling than either of TS7 or 8E2 | 490000 M⁻¹ s⁻¹ | 2.5e-05 s⁻¹ | reduced PRO-C6 in a dose-dependent manner | better effects on ECM remodeling
